Assay results as given in publication PMC3094209.

Legend:
[1] = biological target: human angiotensin receptor type 2 expressed in Sf9 insect cells (human) (UniProt P50052); experiment: radioligand binding; membranes from small-scale cultures; radioactive-labelled specific ligand; specific binding in pmol/mg-membrane, mean ± S.D., n = 3
[2] = biological target: human angiotensin receptor type 2 expressed in P. pastoris (human) (UniProt P50052); experiment: as above

Angiotensin (printed as "Angiotenin"), radioactive-labelled agonist (peptide)
specific binding activity (pmol/mg-membrane) [1]: 1.66
specific binding activity (pmol/mg-membrane) [2]: 3.69
